Changes are numbered by the printed parent chain. In names and notes the source's numbering stands. Several values for one entry are separate records, joined by “and”; a condition that tells them apart may be missing. Equal entries are not always repeated. Blank lines part the entries; values can stand above or below the binder they belong to.
Experiments:
[1] = target: T1, single chain human CD3ε-26mer-CD3γ (CD3εγ) (human); assay: Biacore single cycle kinetics; KD relative to hu38E4.v1
T1 construct: also called human CD3εγ
T1 chain: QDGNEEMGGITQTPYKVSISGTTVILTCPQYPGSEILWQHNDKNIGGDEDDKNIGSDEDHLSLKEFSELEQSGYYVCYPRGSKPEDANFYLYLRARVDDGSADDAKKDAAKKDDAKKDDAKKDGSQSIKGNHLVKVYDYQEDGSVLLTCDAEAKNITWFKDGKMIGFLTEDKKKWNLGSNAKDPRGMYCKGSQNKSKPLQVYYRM
Description: (§1) In addition, position 95 in HVR-H3 was also mutated to serine, threonine, or glutamate. Variants with these single point mutations were expressed as Fabs in HEK293 cells and initially screened with a single cycle kinetics method on a Biacore T100. Selected variants were also scaled up and purified for a conventional multi-cycle kinetics method. For single cycle kinetics, Biacore Series S CM5 sensor chips were immobilized with anti-human Fab antibodies (Human Fab capture kit, GE Healthcare). […] For conventional multi-cycle kinetics, human CD3εγ, cyno CD3εγ, or a 27-mer peptide were immobilized on Biacore Series S CM5 sensor chip using the amine coupling kit from Biacore. Serial 3-fold dilutions of each Fab variant were injected at a flow rate of 30 μl/min. Each sample was analyzed with a protocol of 3-minute association and 3-minute dissociation. In both methods, the Biacore chips were regenerated using 10 mM Glycine (pH 1.7). Binding response was corrected by blank subtraction and a 1:1Languir model of simultaneous fitting of kₒₙ and koff was used for kinetics analysis.

[2] = target: T1, single chain human CD3ε-26mer-CD3γ …; assay: Biacore single cycle kinetics: Fab captured by anti-human Fab, human CD3εγ injected (3-250 nM)
Description: as §1

[3] = target: T1, single chain human CD3ε-26mer-CD3γ …; assay: Biacore, human CD3εγ on chip, TDB in flow through
Experimental: (§2) Binding affinities for the each of the CD3/CD20 TDBs were tested by Biacore or FACS analysis, as described above for the anti-CD3 antibodies. Briefly, for Biacore binding assays, human CD3εγ was immobilized on Biacore Series S CM5 sensor chip using the amine coupling kit from Biacore and CD3/CD20 TDBs or Fab variants thereof were in the flow through. For FACS binding assays, either Bjab cells (for B cell antigens) or Jurkat cells (for CD3 antigen) were incubated with various concentrations of TDB antibodies at 4° C. for 30 minutes, then cells were washed and incubated with 2nd antibody (anti-huIgG-PE; BD Bioscience) for another 15 minutes, before cells were washed again and ready for FACS analysis.

[4] = target: T2, human CD3 on T cells (human, UniProt P07766 22-207); assay: FACS on Jurkat cells (CD3); EC50 table for the curves of FIGS. 21A-21B; source CHO (N297G)
T2 construct: whole, on cells; On cells CD3ε stands in the CD3/TCR complex; also called CD3 antigen; CD3ε
Experimental: as §2

[5] = target: T2, human CD3 on T cells; assay: FACS on Jurkat cells (CD3), anti-huIgG-PE; number printed beside the curve without a quantity name, taken as EC50
Experimental: as §2

[6] = target: T2, human CD3 on T cells; assay: as above; remark: listed apart in the source
Experimental: as §2

[7] = target: T3, commercial CD3ε (Creative Biomart, Catalog Number CD3E-2194H) (human, UniProt P07766); assay: binding affinity on commercial CD3ε (Creative Biomart CD3E-2194H); method not stated in the legend
T3 construct: commercial recombinant protein; also called commercial CD3E

[8] = target: T1, single chain human CD3ε-26mer-CD3γ …; assay: Biacore, monovalent KD of the CD3 arm; CD3 antigen not named on the sheet (reactivity hu, cyno)
[9] = target: T4, Commercial hCD3eg; assay: mu IgG against commercial hCD3eg; method not stated on the sheet
T4 chain 1: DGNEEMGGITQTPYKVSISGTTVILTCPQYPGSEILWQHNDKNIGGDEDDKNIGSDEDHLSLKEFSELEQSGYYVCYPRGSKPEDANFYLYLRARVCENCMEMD
T4 chain 2: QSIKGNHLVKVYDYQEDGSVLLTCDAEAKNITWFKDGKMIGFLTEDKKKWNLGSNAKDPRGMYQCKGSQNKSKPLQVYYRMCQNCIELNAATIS

ratio (fold) [1]: 7.2 fold
Kd [2]: 24.1 nM
koff [2]: 0.00342 s⁻¹
kon [2]: 142000 M⁻¹ s⁻¹
B1: hu38E4.v1 H3 mutant D101A (Fab, V domains shown)
VH: EVQLVQSGAEVKKPGASVKVSCKASGFTFTSYYIHWVRQAPGQGLEWIGWIYPENDNTKYNEKFKDRVTITADTSTSTAYLELSSLRSEDTAVYYCARDGYSRYYFAYWGQGTLVTVSS
VL: DIVMTQSPDSLAVSLGERATINCKSSQSLLNSRTRKNYLAWYQQKPGQSPKLLIYWTSTRKSGVPDRFSGSGSGTDFTLTISSLQAEDVAVYYCKQSFILRTFGQGTKVEIK
notes: copies: 1 + 1

Kd [3]: 1.28 nM and 1.3 nM
koff [3]: 0.00515 s⁻¹
kon [3]: 4.03e+06 M⁻¹ s⁻¹
EC50 [4]: 0.24 µg/mL and ~1.6 nM
EC50 [5]: 0.243 µg/mL and 1.6 nM
B2: KH CD20 2H7v16/38E4v1 (bispecific antibody)
anti-CD20 arm heavy chain: EVQLVESGGGLVQPGGSLRLSCAASGYTFTSYNMHWVRQAPGKGLEWVGAIYPGNGDTSYNQKFKGRFTISVDKSKNTLYLQMNSLRAEDTAVYYCARVVYYSNSYWYFDVWGQGTLVTVSS
anti-CD20 arm light chain: DIQMTQSPSSLSASVGDRVTITCRASSSVSYMHWYQQKPGKAPKPLIYAPSNLASGVPSRFSGSGSGTDFTLTISSLQPEDFATYYCQQWSFNPPTFGQGTKVEIK
anti-CD3 arm heavy chain: B1 VH with A107D
anti-CD3 arm light chain: B1 VL
notes: also called 38E4v1 CHO

ratio (fold) [1]: 0.7 fold
Kd [2]: 2.4 nM
koff [2]: 0.00102 s⁻¹
kon [2]: 428000 M⁻¹ s⁻¹
B3: hu38E4.v1 L3 mutant K89A (Fab, V domains shown)
VH: B1 VH with A107D
VL: B1 VL with K95A
notes: copies: 1 + 1

EC50 [6]: 1.01 µg/mL
B4: KH CD20 2H7v16/hu38E4c (bispecific antibody)
anti-CD20 arm heavy chain: B2 anti-CD20 arm heavy chain
anti-CD20 arm light chain: B2 anti-CD20 arm light chain
anti-CD3 arm heavy chain: B1 VH with G100S, R103N, A107D
anti-CD3 arm light chain: B1 VL with K95T
notes: also called CD3/CD20 TDB 2H7v16/38E4c

ratio (fold) [1]: 1.1 fold
Kd [2]: 3.8 nM
koff [2]: 0.00147 s⁻¹
kon [2]: 385000 M⁻¹ s⁻¹
B5: hu38E4.v1 H3 mutant S98A (Fab, V domains shown)
VH: B1 VH with S102A, A107D
VL: B1 VL
notes: copies: 1 + 1

ratio (fold) [1]: 1.2 fold
Kd [2]: 4.1 nM
koff [2]: 0.00132 s⁻¹
kon [2]: 322000 M⁻¹ s⁻¹
B6: hu38E4.v1 H3 mutant Y102A (Fab, V domains shown)
VH: B1 VH with A107D, Y108A
VL: B1 VL
notes: copies: 1 + 1

Kd [7]: 3.1 nM
B7: humanized SP34 variant: λ7 graft + F36V + Q38E + A43L + P44F + T46G + Y49G + T58V + Y87F / VH3 graft + N73D + T93V (antibody, V domains shown)
VH: EVQLVESGGGLVQPGGSLRLSCAASGFTFNTYAMNWVRQAPGKGLEWVGRIRSKYNNYATYYADSVKDRFTISRDDSKNTLYLQMNSLRAEDTAVYYCVRHGNFGNSYVSWFAYWGQGTLVTVSS
VL: EAVVTQEPSLTVSPGGTVTLTCRSSTGAVTTSNYANWVQEKPGQLFRGLIGGTNKRAPWVPARFSGSLLGGKAALTLSGAQPEDEAEYFCALWYSNLWVFGGGTKLTVL

EC50 [6]: 1.11 µg/mL
EC50 [5]: 0.6 µg/mL and 4 nM
B8: KH CD20 2H7v16/SP34v52 (bispecific antibody, V domains shown)
VH 1: B2 anti-CD20 arm heavy chain
VL 1: B2 anti-CD20 arm light chain
VH 2: B7 VH with G49A
VL 2: B7 VL with E40Q, L45A, F46P, V60T, F89Y
modifications: Knob-into-hole full-length IgG; constant regions are not in the letters.
notes: full-length knob-into-hole human IgG1 TDB; also called CD3/CD20 TDB 2H7v16/SP34v52

Kd [8]: 1.9 nM
B9: murine SP34 (antibody, V domains shown)
VH: B7 VH with G15K, R19K, G49A, K78Q, N79S, T80I, S87N, R89K, A90T, V95M
VL: QAVVTQESALTTSPGETVTLTCRSSTGAVTTSNYANWVQEKPDHLFTGLIGGTNKRAPGVPARFSGSLIGDKAALTITGAQTEDEAIYFCALWYSNLWVFGGGTKLTVL
notes: KD is printed as monovalent

Kd [7]: 8 nM
B10: humanized SP34 variant: λ7 graft + F36V + Q38E + A43L + P44F + T46G + Y49G + T58V + Y87F / VH3 graft G49A + N73D + T93V (antibody, V domains shown)
VH: B7 VH with G49A
VL: B7 VL

Kd [7]: 15.9 nM
B11: humanized SP34 variant: λ7 graft + F36V + T46G + Y49G / VH3 graft + T93V (antibody, V domains shown)
VH: B7 VH with D76N
VL: B7 VL with E40Q, L45A, F46P, V60T, F89Y

Kd [7]: 14.5 nM
B12: humanized SP34 variant: λ7 graft + F36V + T46G + Y49G / VH3 graft G49A + N73D + T93V (antibody, V domains shown)
VH: B7 VH with G49A
VL: B7 VL with E40Q, L45A, F46P, V60T, F89Y

Kd [9]: 0.4 nM
B13: 30A1 (antibody, IgG1, V domains shown)
VH: QVQLKESGPGLVAPSQSLSITCTVSGFSLTNYAIHWVRQPPGKGLDWLGVIWAGGNTKYNSALMSRLSFSKDNSKSQVFLEINSLQTDDTAMYYCAREDSSGYVALDYWGQGTSVTVSS
VL: NIVMTQSPSSLAVSAGEKVTMSCKSSQSLLSGRTRKNYLAWYQQKPGQSPKLLIYWASTRESGVPDRFTGSGSGTDFTLTISSVQAEDLAVYYCKQSYYLLTFGAGTKLELK
notes: mouse hybridoma clone

Kd [9]: 2.5 nM
B14: 72H6 (antibody, IgG2a, V domains shown)
VH: EVQLQQSGPELVKPGASVKISCKASGYSFTSYYIHWVKQRPGQGLEWIGWIFPGSDNTKYNEKFKGKATLTADTSSSTAYMQLSSLTSEDSAVYFCARNGNYAMDYWGQGTSVTVSS
VL: B13 VL with N1E, M4L, T5S, S31N, G32S, Y99T, L101R, A105G, L111I
notes: mouse hybridoma clone; also called 72H6 (xCD3)

Kd [9]: 0.6 nM
B15: 13A3 (antibody, IgG2b, V domains shown)
VH: EVQLQQSGPELVKPGASVRISCKASGYTFTSYYIHWMKQRPGQGLEWIGWIYPGNVNTKYNEKFKGKATLTADNSSSTANMQLSSLTSEDSAVYFCARNHDYYFDYWGQGTTLTVSS
VL: B13 VL with N1D, M4L, S31N, G32S, Y99I, L101R, A105G, L111I
notes: mouse hybridoma clone; also called 13A3 (xCD3)

Kd [9]: 0.7 nM
B16: 19B1 (antibody, IgG2b, V domains shown)
VH: B15 VH
VL: B13 VL with N1G, S31N, G32S, Y99I, L101R, A105G, L111I
notes: mouse hybridoma clone; also called 19B1 (xCD3)

Kd [8]: 0.75 nM
B17: murine 38E4 (antibody, V domains shown)
VH: QVQLQQSGPELVKPGASVTISCTASGFTFTSYYIHWVRQRPGQGLEWIGWIYPENDNTKYNEKFKDKATLTADTSSSTAYMQLSSLTSEDSAVYYCARDGYSRYYFDYWGQGTTLTVSS
VL: DIVMTQSPSFLAVSAGEKVTMSCKSSQSLLNSRTRKNYLAWYQQRPGQSPKLLIYWTSTRKSGVPDRFTGSGSGTDFTLTISSVQAEDLAIYYCKQSFILRTFGGGTKLEIK
notes: KD is printed as monovalent

From patent US20200299408A1 (Genentech, published 2020)
